B1: antibody 1823 (antibody, V domains shown)
VH: EVQLVESGGGLVKPGGSLRLSCVASGFSFGLYTMNWVRQAPGKGLEWVSYISSSTSYKYYADSVKGRVSVSRDNAKNSLYLQLNGLRVEDTAVYYCARDGYCPNGICTYYGMDVWGQGTTVTVSA
VL: EIVMTQSPATLSVSPGERATLSCRASQSVSSNLAWYQQKPGQAPRLLIYGASTRATGIPARFSGSGSGTEFTLTITGLQSEDFAVYYCQQYDKWPPAYSFGQGTKVEIK
B2: antibody 1871 (antibody, V domains shown)
VH: EVQLVESGGGLVKPGGSLRLSCVASGFSFSIYSMNWVRQAPGKGLEWVSYISSSSSYKYYADSVKGRFSVSRDNAKNSLYLQLNGLRAEDTAVYYCARDGYCPKGVCTYYGMDVWGQGTTVTVSA
VL: EIVMTQSPATLSVSPGERVTLSCRASQSVRSRLAWFQQKPGQAPRLLIYDASIRATGIPARFSGSGSGTEFTLIISSLQSEDFAVYYCQQYDNWPPAYTFGQGTKLEIK
B3: antibody 2646 (antibody, V domains shown)
VH: QVQLVQSGAEVKKPGASVKVSCKVSGYTLTELSIHWVRQAPGKGLEWMGGFDPEDAETIYAQKFQGRVTMTEDTSTDTAYMELSSLRSEDTAVYYCATATAVAGTVFNYQYHYGLDFWGQGTTVTVSS
VL: not shown
B4: antibody 2598 (antibody, V domains shown)
VH: QVQLQESGPGLVKPSGTLSLTCVVSGGSISSSNWWSWVRQPPGKGLEWIGETFHSGSFNYNPSLKSRVTISVDKSKNQFSLKLSSVTAADTAIYYCATTRVGYEGHFYYYGMDVWGQGTTVTVSS
VL: DIQMTQSPSSVSASVGDRVTITCRASQGISSWLAWYQQKPGKAPKLLIYAASSLQSGVPSRFSGSGSGTDFTLTISSLQPEDFATYYCQQANRFPWTFGQGTKVEIK
B5: antibody 1814 (antibody, V domains shown)
VH: QVQLQESGPGLVKPSETLSLTCSVSGGSINYYYWSWIRQTPGQGLEWIGFIYSSGTTNYNPSLKSRVTMSKDTAKKQFSLKLTSVTAADSAVYYCARHSRSCTNGVCQTYYYYALDVWGHGTTVTVSS
VL: QSVLTQPPSVSGAPGQRVTISCTGSGSNIGSGYDVHWYQQLPGRAPKLLIYRNRNRPSGVPDRFSGSKSGTSASLAIAGLQSEDEGDYFCQSYDGRLGESAVFGGGTRLTVL
B6: antibody 1815 (antibody, V domains shown)
VH: QVQLQESGPGLVKPSETLSLTCSVSGGSINYYYWSWIRKSPGKGLEWIGFIYSSGTTNYNPSLKSRVSMSIGTSKRQFSLKLSSVTAADSAVYYCARHSRSCTNGVCQTYYYYALDVWGHGTTVTVSS
VL: QSVLTQPPSVSGAPGQRVTISCTGSSSNIGAGYDVHWYQQLPGTAPKLLIYANTHRPSGVPDRFSASKSGTSASLAIAGLQAEDEGDYYCQSYDGSLSESAVFGGGTRLTVL
B7: antibody 1671 (antibody, V domains shown)
VH: EVQLVESGGGLVKPGGSLRLSCAASGFTFSTYNMNWVRQAPGKGLEWVSSISSNSNYIYYADSMKGRFTISRDNAKNSLYLQMNSLRAEDTAVYYCARDMDPLPYFDWLLYAFDVWGQGTMVTVSS
VL: EIVLTQSPGTLSLSPGERATLSCRASQSVSGSYLAWYQQKPGQAPRLLIYGASSRATGIPDRFSGSGSGTDFTLTISRLEPEDFAVYYCQQYGSPIFTFGPGTKVDIK
B8: antibody 2866 (antibody, V domains shown)
VH: QVQLVQSGAEVKKPGSSVKVSCKASGGTFSSYSISWVRQAPGQGLEWMGGLAPIFHTPNYAQKFQGRVTITADESTSTAYMELSSLRSEDTAVYYCARVAGAGWGVYGAFDYWGQGTLVTVSS
VL: not shown
B9: antibody 2788 (antibody, V domains shown)
VH: QVQLVQSGAEVKKPGASVKVSCKVSGYTLIELSMHWVRQAPGKGLEWMGGFDPEGAETIYAQKFQGRVTMTEDTSTDTAYMELSSLRSDDTAVYYCATGPAVFAANWFDPWGQGTLVTVSS
VL: QSALTQPPSASGSPGQSVTISCTGTSSDIGNYNNVSWYQQHPGKAPKLMIYDVIKRPSGVPDRFSGSKSGNTASLTVSGLQAEDEADYYCSSYAGKSYVFGTGTKVTVL
B10: antibody 2019 (antibody, V domains shown)
VH: QVQLVESGGGVVQPGGSLSLSCAASGLSFSSYGMHWVRQAPGKGLEWVAFIRYDVSNKYYADSVKGRFTISRDNSKNTLYLQMNSLRVEDTAVYYCATWAPLDDGMDVWGQGTTVTVSS
VL: SYELTQPPSVSVSPGQTARITCSGDALPKQYAYWYQQKPGQAPVLVIYKDTERPSGIPERFSGSSSGTTVTLTISGVQAEDEADYYCQSGDSSGTFYVVFGGGTKLTVL
B11: antibody 1238 (antibody, V domains shown)
VH: QVQLVQSGSELKKPGASVKVSCKASGYTFTNYGMNWVRQAPGQGLEWMGWINTNTGNPTNAQGFTGRFVFSLDTSVSTAYLQINSLKGEDTAVYYCARVADTGEMDVWGQGTTVTVSS
VL: SYELTQPPSVSVSPGQTARITCSGDALPKQYAYWYQQKPGQAPVLVIYKDSERPSGIPERFSGSSSGTTVTLTISGVQAEDEADYYCQSADSSGSYNWVFGGGTKLTIL
B12: antibody 2854 (antibody, V domains shown)
VH: QVQLVQSGAEVKKPGSSVKVSCKASGGTFSSYAISWVRQAPGQGLEWMGGIIPIFHTANYAQKFQGRVTITADESTSTTYVELSSLRSEDTAMYYCATLPITIFGEEYSFDNWGQGTLVTVSS
VL: DVVMTQSPLSLPVTLGQPASISCRSSQSLVHSDGNTYLSWFQQRPGQSPRRLIYKVSDRDSGVPDRFSGSGSGTDFTLKISRVEAEDVGIYYCMQGTHWPPLTFGGGTKVEIK

Experiments:
[1] = molecular target: T1, S2 subunit of the SARS-CoV-2 spike protein, WA01/2020 strain (SARS-CoV-2, WA01/2020 strain, UniProt P0DTC2 686-1213); assay: ELISA on S2 (S2 Binding EC50)
[2] = molecular target: SARS-CoV (2003) spike protein borne on lentiviral pseudovirus (SARS-CoV (2003), UniProt P59594 14-1255); assay: cell-based or functional assay
[3] = molecular target: T1, S2 subunit of the SARS-CoV-2 spike …; assay: dose-response ELISA; antigen taken from the column 'Structural data'
[4] = molecular target: T2, SARS-CoV-2 nucleocapsid (N) protein (SARS-CoV-2, UniProt P0DTC9 1-419); assay: ELISA screening, antibody concentration not given
[5] = molecular target: T3, S1 subunit of the SARS-CoV-2 spike protein, WA01/2020 strain (SARS-CoV-2, WA01/2020 strain, UniProt P0DTC2 16-685); assay: ELISA screening, antibody concentration not given
[6] = molecular target: SARS-CoV-2 spike protein, WA1/2020, borne on lentiviral pseudovirus (SARS-CoV-2, WA01/2020 strain, UniProt P0DTC2 14-1273); assay: cell-based or functional assay
[7] = molecular target: T4, SARS-CoV-2 spike (S) protein trimer, WA01/2020 strain (SARS-CoV-2, WA01/2020 strain, UniProt P0DTC2 16-1213); assay: dose-response ELISA on coated antigen
[8] = molecular target: T3, S1 subunit of the SARS-CoV-2 spike …; assay: dose-response ELISA on coated antigen
[9] = molecular target: T3, S1 subunit of the SARS-CoV-2 spike …
[10] = molecular target: T2, SARS-CoV-2 nucleocapsid (N) protein; assay: ELISA, antibody at 0.1 ug/mL
[11] = molecular target: T1, S2 subunit of the SARS-CoV-2 spike …; assay: ELISA, antibody at 0.1 ug/mL
[12] = molecular target: T3, S1 subunit of the SARS-CoV-2 spike …; assay: ELISA, antibody at 0.1 ug/mL
[13] = molecular target: T4, SARS-CoV-2 spike (S) protein trimer, …

| Binder | EC50 [1] [pM] | Pseudo Neut, SARS-CoV 2003 IC50 [2] [pM] | EC50 [3] [pM] | EC50 [7] [pM] | EC50 [8] [pM] | Kd [9] [pM] | binding result [10] | binding result [11] | further results |
| --- | --- | --- | --- | --- | --- | --- | --- | --- | --- |
| B1 | 614 | 210000 | 614 | – | – | – | – | – | – |
| B2 | 103 | 30000 | 103 | – | – | – | – | – | binding result [4]: no binding (tested: not printed); binding result [5]: no binding (tested: not printed); Pseudo Neut, WA1/2020 IC50 (pM) [6]: 440 pM |
| B3 | – | – | – | 24 | 33 | 2.96 | – | – | – |
| B4 | – | – | – | 43 | 84 | 8.23 | – | – | – |
| B5 | 77 | 6500 | 77 | – | – | – | – | – | binding result [4]: no binding (tested: not printed); binding result [5]: no binding (tested: not printed); Pseudo Neut, WA1/2020 IC50 (pM) [6]: 171 pM |
| B6 | 127 | 26000 | 127 | – | – | – | – | – | binding result [4]: no binding (tested: not printed); binding result [5]: no binding (tested: not printed); Pseudo Neut, WA1/2020 IC50 (pM) [6]: 10.2 pM |
| B7 | – | – | – | – | – | 50.6 | – | – | – |
| B8 | – | – | – | 182 | – | – | no binding (tested: 0.1 ug/mL) | no binding (tested: 0.1 ug/mL) | binding result [12]: no binding (tested: 0.1 ug/mL); Kd [13]: 154 pM |
| B9 | – | – | – | 21 | 58 | – | no binding (tested: 0.1 ug/mL) | no binding (tested: 0.1 ug/mL) | – |
| B10 | – | – | – | 24 | – | – | no binding (tested: 0.1 ug/mL) | no binding (tested: 0.1 ug/mL) | binding result [12]: no binding (tested: 0.1 ug/mL); Kd [13]: 57 pM |
| B11 | – | – | – | 69 | 28 | 27 | no binding (tested: 0.1 ug/mL) | no binding (tested: 0.1 ug/mL) | – |
| B12 | – | – | – | 152 | – | – | no binding (tested: 0.1 ug/mL) | no binding (tested: 0.1 ug/mL) | binding result [12]: no binding (tested: 0.1 ug/mL); Kd [13]: 112 pM |

From patent US20230382979A1 (ADAPTIVE BIOTECHNOLOGIES, published 2023)
